Data reported in patent US20200024360A1 (Janssen / Centocor, published 2020).
Changes are numbered by the printed parent chain. Names may count otherwise. Where two headings read alike, the source gives them in different places.

What was measured:
[1] = target: T1, recombinant chimpanzee PSMA extracellular domain (ECD) protein (Pan troglodytes, UniProt Q04609 44-750 (human entry)); assay: SPR ProteOn
T1 construct: also called Chimp PSMA ECD; PSMG8
T1 chain: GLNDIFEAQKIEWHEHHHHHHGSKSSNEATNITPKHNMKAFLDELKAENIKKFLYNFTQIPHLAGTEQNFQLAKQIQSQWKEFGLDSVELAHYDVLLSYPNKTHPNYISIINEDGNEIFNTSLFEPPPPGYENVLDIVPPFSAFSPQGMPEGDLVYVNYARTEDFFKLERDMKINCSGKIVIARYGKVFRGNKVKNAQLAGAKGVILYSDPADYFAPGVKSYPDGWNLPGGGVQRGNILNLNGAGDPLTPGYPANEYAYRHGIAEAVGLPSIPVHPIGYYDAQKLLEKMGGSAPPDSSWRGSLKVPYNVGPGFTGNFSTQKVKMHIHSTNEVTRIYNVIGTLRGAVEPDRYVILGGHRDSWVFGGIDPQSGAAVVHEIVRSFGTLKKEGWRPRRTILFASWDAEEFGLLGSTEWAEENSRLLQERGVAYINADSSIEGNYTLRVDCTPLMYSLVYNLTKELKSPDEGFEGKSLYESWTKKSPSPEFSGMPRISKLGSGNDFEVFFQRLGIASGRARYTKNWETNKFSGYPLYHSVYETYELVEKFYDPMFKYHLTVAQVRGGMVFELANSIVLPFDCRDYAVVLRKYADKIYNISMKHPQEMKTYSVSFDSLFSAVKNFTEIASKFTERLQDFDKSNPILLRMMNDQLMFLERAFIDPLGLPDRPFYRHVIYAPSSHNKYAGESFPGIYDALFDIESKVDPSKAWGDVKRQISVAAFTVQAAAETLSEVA

[2] = target: T2, recombinant human PSMA extracellular domain (ECD) protein (human, UniProt Q04609 44-750); assay: SPR ProteOn
T2 construct: also called human PSMA ECD

[3] = target: T3, human PSMA (prostate specific membrane antigen), full length (human, UniProt Q04609 1-750); assay: flow cytometry, bispecific antibody titrated on LNCaP cells (human PSMA), anti-human kappa light chain PE
T3 construct: On LNCaP or C4-2B cells (endogenous) or transduced HEK293F cells; also called FOLH1_HUMAN; hPSMA
T3 sequence (Q04609 whole entry): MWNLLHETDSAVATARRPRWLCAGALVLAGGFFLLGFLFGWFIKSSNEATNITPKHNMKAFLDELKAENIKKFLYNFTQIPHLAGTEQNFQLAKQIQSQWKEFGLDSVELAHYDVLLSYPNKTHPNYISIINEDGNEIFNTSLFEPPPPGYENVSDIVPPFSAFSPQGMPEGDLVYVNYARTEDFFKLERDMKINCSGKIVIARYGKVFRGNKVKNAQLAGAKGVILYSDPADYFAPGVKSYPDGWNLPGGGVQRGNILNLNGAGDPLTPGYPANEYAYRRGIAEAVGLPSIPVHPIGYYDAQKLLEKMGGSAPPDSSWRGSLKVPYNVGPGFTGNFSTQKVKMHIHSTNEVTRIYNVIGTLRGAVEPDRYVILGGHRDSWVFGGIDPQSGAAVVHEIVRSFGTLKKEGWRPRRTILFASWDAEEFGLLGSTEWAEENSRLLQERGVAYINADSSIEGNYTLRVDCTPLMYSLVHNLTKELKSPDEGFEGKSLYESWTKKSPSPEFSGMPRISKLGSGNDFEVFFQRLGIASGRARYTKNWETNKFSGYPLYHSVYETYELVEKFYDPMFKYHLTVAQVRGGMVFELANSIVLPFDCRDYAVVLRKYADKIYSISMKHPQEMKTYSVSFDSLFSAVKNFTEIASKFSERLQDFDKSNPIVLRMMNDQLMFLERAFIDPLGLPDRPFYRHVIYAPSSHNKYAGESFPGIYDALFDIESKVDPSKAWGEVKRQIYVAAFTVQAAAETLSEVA
Protocol: (§1) PSMA×CD3 bispecific antibodies were tested for binding to PSMA positive cell lines LNCAP, human PSMA-HEK, Chimpanzee-PSMA-HEK and Cynomolgous monkey PSMA-HEK. To assess the binding capabilities of the PSMA bispecific antibodies, the cell-binding assay was utilized (described previously). Briefly, PSMA expressing tumor cells are bound by bispecific antibodies at known concentrations and the bound antibody is detected by an anti-human kappa light chain PE conjugated detection reagent (Invitrogen). The Mean Fluorescents Intensity (MFI) is the measure of bound bispecific antibody. The MFI is converted to a relative EC₅₀. EC₅₀ is a commonly used dose-response curve, where the half maximal effective concentration or the EC₅₀ point is defined as the inflection point of the curve. EC₅₀ s were determined by measuring cell bound bispecific and known concentrations. […] The dose response curves were then diluted down to that of background or no bispecific binding. The inflection point of this curve reflects the EC₅₀ point. The calculated EC₅₀ is determined by taking the ug/ml amount of bispecific antibody at the EC₅₀ point and converting it to a molarity value based on the MW of the bispecific antibody. Bispecific antibodies were normalized for protein concentration and then incubated with the same number of cells expressing either human or cyno PSMA. The MFI at each concentration was collected by flow cytometry and plotted as a function of concentration. Data was transformed via log 10 and then plotted. Nonlinear regression of binding curves was done to determine EC₅₀ s. These relative values were used for ranking PSMA binding to target cells.

[4] = target: T4, Cynomolgous monkey PSMA, full length (Macaca fascicularis, UniProt Q04609 1-750 (human entry)); assay: FACS, whole cell binding, cyno PSMA HEK; calculated EC50
T4 construct: On transfected HEK293F cells; also called cyno PSMA; EHH56646.1
T4 chain: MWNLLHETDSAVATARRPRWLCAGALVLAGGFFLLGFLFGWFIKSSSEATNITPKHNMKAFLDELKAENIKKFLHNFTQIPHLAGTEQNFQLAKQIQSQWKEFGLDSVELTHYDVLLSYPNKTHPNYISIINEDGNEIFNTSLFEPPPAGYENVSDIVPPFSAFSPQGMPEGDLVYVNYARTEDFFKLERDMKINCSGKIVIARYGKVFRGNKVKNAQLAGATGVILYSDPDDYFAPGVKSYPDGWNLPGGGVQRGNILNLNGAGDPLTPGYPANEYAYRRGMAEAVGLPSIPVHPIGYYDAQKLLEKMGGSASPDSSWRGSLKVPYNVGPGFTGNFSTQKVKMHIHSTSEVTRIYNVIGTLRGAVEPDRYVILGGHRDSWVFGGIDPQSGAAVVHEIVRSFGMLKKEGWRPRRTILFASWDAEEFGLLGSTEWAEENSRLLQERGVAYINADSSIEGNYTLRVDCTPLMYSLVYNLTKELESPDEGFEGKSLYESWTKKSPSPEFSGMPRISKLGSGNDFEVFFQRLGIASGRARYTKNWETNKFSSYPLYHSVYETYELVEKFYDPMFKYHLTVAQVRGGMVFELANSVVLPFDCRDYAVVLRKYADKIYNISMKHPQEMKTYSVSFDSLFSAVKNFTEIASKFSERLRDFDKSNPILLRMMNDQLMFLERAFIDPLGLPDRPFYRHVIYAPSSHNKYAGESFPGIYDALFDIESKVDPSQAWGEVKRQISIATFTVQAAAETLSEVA
Protocol: as §1

[5] = target: T3, human PSMA (prostate specific membrane …); assay: FACS, whole cell binding, LNCaP
Protocol: as §1

[6] = target: T5, chimpanzee PSMA, full length (Pan troglodytes, UniProt Q04609 1-750 (human entry)); assay: FACS, whole cell binding, chimp PSMA HEK; calculated EC50
T5 construct: On transfected HEK293F cells; also called chimp PSMA; H2Q3K5_PANTR
T5 chain: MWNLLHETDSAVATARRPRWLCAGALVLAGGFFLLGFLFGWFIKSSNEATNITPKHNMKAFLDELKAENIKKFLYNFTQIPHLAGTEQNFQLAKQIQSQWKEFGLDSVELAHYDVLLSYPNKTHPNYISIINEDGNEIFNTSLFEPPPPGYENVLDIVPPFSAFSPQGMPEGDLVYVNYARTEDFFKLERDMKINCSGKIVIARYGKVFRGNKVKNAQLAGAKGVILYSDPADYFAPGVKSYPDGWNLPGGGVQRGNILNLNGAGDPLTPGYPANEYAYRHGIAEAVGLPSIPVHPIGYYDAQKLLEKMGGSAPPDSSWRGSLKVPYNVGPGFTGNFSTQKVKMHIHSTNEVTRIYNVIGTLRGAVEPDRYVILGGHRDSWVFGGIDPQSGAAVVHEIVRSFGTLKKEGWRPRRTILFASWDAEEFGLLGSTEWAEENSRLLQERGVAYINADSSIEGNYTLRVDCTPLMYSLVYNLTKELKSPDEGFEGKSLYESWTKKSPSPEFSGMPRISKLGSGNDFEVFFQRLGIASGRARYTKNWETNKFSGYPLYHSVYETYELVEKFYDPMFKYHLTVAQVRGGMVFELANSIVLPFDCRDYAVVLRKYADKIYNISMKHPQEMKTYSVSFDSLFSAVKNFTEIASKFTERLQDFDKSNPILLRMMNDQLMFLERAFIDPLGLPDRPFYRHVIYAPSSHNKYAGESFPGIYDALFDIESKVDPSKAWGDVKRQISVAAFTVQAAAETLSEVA
Protocol: as §1

[7] = target: T3, human PSMA (prostate specific membrane …); assay: FACS, whole cell binding, LNCaP; calculated EC50
Protocol: as §1

[8] = target: T4, Cynomolgous monkey PSMA, full length; assay: FACS, whole cell binding, cyno PSMA HEK
Protocol: as §1

[9] = target: T5, chimpanzee PSMA, full length; assay: FACS, whole cell binding, chimp PSMA HEK
Protocol: as §1

[10] = target: T3, human PSMA (prostate specific membrane …); assay: flow cytometry, bispecific antibody titrated on LNCaP cells (human PSMA), anti-human kappa light chain PE; remark: listed apart in the source
Protocol: as §1, with “The MFI at each concentration was collected by flow cytometry and plotted as a function of concentration. Data was transformed via log 10 and then plotted. Nonlinear regression of binding curves was done to determine EC₅₀ s. These relative values were used for ranking PSMA binding to target cells.” left out

B1: PSMB130 (antibody, human IgG4 S228P, kappa, F234A L235A, V domains shown)
VH: QVQLVQSGAEVKKPGSSVKVSCKASGGTFKSYDISWVRQAPGQGLEWMGGIIPIEGTANYAQKFQGRVTITADESTSTAYMELSSLRSEDTAVYYCARDYPAGYGFDYWGQGTLVTVSS
VL: not shown
notes: IgG4 with S228P, F234A, L235A; also called mAb of Fab PSMB86
[1]
  Kd: 31.7 nM
[2]
  Kd: 29.6 nM

B2: PS3B9 (M84) (bispecific antibody, human IgG4 S228P, kappa, lambda, F234A L235A)
heavy chain, PSMA arm (PSMB127): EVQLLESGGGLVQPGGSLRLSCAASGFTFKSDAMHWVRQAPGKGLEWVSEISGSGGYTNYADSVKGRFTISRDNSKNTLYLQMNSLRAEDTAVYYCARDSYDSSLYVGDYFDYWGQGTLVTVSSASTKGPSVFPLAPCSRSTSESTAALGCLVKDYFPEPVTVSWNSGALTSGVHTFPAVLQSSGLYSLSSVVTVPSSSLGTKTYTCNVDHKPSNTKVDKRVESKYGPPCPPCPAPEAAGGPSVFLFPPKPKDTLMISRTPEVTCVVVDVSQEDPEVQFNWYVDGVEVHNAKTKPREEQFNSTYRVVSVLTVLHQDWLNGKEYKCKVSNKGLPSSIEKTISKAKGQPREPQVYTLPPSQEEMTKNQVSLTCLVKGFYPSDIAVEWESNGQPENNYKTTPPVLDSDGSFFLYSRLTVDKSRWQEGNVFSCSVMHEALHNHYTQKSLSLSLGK
light chain, PSMA arm (PSMB127): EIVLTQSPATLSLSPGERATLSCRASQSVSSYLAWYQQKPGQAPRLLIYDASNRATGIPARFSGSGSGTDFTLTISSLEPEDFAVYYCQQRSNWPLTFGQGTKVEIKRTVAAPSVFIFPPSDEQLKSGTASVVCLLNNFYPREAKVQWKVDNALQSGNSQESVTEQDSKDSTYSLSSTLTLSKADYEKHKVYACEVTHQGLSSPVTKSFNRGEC
heavy chain, CD3 arm (CD3B217): EVQLLESGGGLVQPGGSLRLSCAASGFTFNTYAMNWVRQAPGKGLEWVARIRSKYNNYATYYADSVKGRFTISRDNSKNTLYLQMNSLRAEDTAVYYCVKHGNFGNSYVSWFAYWGQGTLVTVSSASTKGPSVFPLAPCSRSTSESTAALGCLVKDYFPEPVTVSWNSGALTSGVHTFPAVLQSSGLYSLSSVVTVPSSSLGTKTYTCNVDHKPSNTKVDKRVESKYGPPCPPCPAPEAAGGPSVFLFPPKPKDTLMISRTPEVTCVVVDVSQEDPEVQFNWYVDGVEVHNAKTKPREEQFNSTYRVVSVLTVLHQDWLNGKEYKCKVSNKGLPSSIEKTISKAKGQPREPQVYTLPPSQEEMTKNQVSLTCLVKGFYPSDIAVEWESNGQPENNYKTTPPVLDSDGSFLLYSKLTVDKSRWQEGNVFSCSVMHEALHNHYTQKSLSLSLGK
light chain, CD3 arm (CD3B217): QAVVTQEPSLTVSPGGTVTLTCRSSTGAVTTSNYANWVQQKPGQAPRGLIGGTNKRAPGTPARFSGSLLGGKAALTLSGAQPEDEAEYYCALWYSNLWVFGGGTKLTVLGQPKAAPSVTLFPPSSEELQANKATLVCLISDFYPGAVTVAWKADSSPVKAGVETTTPSKQSNNKYAASSYLSLTPEQWKSHRSYSCQVTHEGSTVEKTVAPTECS
notes: also called PSMB127 x CD3B217
[3]
  EC50 (read off the curve): ~2 µg/mL

B3: PS3B26 (bispecific antibody, human IgG4 S228P, kappa, lambda, F234A L235A)
heavy 1: not shown
light 1: not shown
heavy 2: B2 heavy chain, CD3 arm (CD3B217) with L5V, D64A, N76D, T80S, R89K, A90T, V99A, K100R
light 2: B2 light chain, CD3 arm (CD3B217) with A2T, A80V
notes: IgG4 PAA; PSMA arm chains first, then CD3 arm (F405L, R409K); also called PSMB126 x CD3B219
[4]
  EC50: 2.6 nM
[5]
  EC50: 0.0715 µg/mL
[6]
  EC50: 0.34 nM
[7]
  EC50: 0.5 nM
[8]
  EC50: 0.371 µg/mL
[9]
  EC50: 0.05 µg/mL

B4: PS3B8 (M81) (bispecific antibody, human IgG4 S228P, kappa, lambda, F234A L235A)
heavy chain, PSMA arm (PSMB126): not shown
light chain, PSMA arm (PSMB126): not shown
heavy chain, CD3 arm (CD3B217): B2 heavy chain, CD3 arm (CD3B217)
light chain, CD3 arm (CD3B217): B2 light chain, CD3 arm (CD3B217)
notes: also called PSMB126 x CD3B217
[3]
  EC50 (read off the curve): ~0.1 µg/mL

B5: PS3B12 (M87) (bispecific antibody, human IgG4 S228P, kappa, lambda, F234A L235A)
heavy chain, PSMA arm (PSMB130): not shown
light chain, PSMA arm (PSMB130): not shown
heavy chain, CD3 arm (CD3B217): B2 heavy chain, CD3 arm (CD3B217)
light chain, CD3 arm (CD3B217): B2 light chain, CD3 arm (CD3B217)
notes: also called PSMB130 x CD3B217
[10]
  EC50 (read off the curve): ~1 µg/mL

B6: PS3B4 (M52) (bispecific antibody, human IgG4 S228P, kappa, lambda, F234A L235A)
heavy chain, PSMA arm (PSMB122): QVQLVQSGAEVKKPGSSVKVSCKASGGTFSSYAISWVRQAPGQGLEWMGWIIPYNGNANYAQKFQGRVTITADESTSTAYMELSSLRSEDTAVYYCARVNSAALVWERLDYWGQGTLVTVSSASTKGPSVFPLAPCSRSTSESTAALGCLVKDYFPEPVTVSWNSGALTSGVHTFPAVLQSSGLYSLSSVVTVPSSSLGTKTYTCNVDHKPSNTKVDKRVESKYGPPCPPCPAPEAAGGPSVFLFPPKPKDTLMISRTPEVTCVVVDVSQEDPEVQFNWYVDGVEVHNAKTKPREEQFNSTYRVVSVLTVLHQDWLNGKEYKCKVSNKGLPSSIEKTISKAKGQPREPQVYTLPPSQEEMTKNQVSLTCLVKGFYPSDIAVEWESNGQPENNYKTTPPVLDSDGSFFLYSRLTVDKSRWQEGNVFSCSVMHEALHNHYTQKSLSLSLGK
light chain, PSMA arm (PSMB122): DIQMTQSPSSLSASVGDRVTITCRASQSIDRWLNWYQQKPGKAPKLLIYAASSLQSGVPSRFSGSGSGTDFTLTISSLQPEDFATYYCQQSPRYPLTFGQGTKVEIKRTVAAPSVFIFPPSDEQLKSGTASVVCLLNNFYPREAKVQWKVDNALQSGNSQESVTEQDSKDSTYSLSSTLTLSKADYEKHKVYACEVTHQGLSSPVTKSFNRGEC
heavy chain, CD3 arm (CD3B217): B2 heavy chain, CD3 arm (CD3B217)
light chain, CD3 arm (CD3B217): B2 light chain, CD3 arm (CD3B217)
notes: also called PSMB122 x CD3B217
[3]
  EC50 (read off the curve): ~2 µg/mL
